Measured values from paper PMC7374751, “TIMP-3 facilitates binding of target metalloproteinases to the endocytic receptor LRP-1 and promotes scavenging of MMP-1” (Scientific Reports, 2020).

What was measured:
Details in all cases: both partners purified
[1] = target: T1, low-density lipoprotein receptor-related protein 1 (LRP-1) (UniProt Q07954 20-4544); assay: SPR; BIAcore T200; LRP-1 immobilised on a CM5 chip by amine coupling (3000 RU); 25 °C; 150 mM NaCl, 10 mM CaCl2, 50 mM Tris-HCl, 0.01% Tween-20, pH 7.5; 30 μl/min; ligands or pre-formed complexes injected; one-site binding model; triplicate
T1 construct: low-density lipoprotein receptor-related protein 1 (LRP-1), bought from Biomac; source: bought: Biomac (Leipzig, Germany)

[2] = target: T2, FLAG-tagged ADAMTS-4 lacking the C-terminal spacer domain (ADAMTS4-2) (UniProt O75173 213-685); assay: enzyme inhibition kinetics (fluorogenic peptide substrates); apparent Ki; enzyme pre-incubated with TIMP-3 (0.5-100 nM) 1 h at 37 °C, equilibrium rate of substrate hydrolysis; TNC buffer (50 mM Tris-HCl pH 7.5, 150 mM NaCl, 10 mM CaCl2, 0.05% Brij-35, 0.02% NaN3), 37 °C; tight-binding equation
T2 construct: ADAMTS-4 lacking the C-terminal spacer domain
T2 sequence (looked up): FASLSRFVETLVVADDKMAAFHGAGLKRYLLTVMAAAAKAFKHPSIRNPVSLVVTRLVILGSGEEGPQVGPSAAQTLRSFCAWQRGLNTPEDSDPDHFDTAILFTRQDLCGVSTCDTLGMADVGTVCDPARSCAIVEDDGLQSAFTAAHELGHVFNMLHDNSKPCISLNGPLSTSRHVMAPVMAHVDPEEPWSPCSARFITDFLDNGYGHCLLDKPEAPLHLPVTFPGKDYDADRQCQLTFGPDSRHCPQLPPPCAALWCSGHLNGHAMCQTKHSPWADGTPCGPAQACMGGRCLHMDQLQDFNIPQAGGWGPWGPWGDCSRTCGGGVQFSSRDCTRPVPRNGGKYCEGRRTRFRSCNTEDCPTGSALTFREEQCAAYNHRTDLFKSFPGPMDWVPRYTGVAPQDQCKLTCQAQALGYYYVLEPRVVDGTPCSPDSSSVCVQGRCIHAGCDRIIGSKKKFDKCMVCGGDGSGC

[3] = target: T3, catalytic domain of human MMP-1 (MMP-1ΔC) (human, UniProt P03956 100-269); assay: enzyme activity of pre-formed complexes against synthetic substrates; 10 nM [35S]TIMP-3 incubated with an equimolar concentration of metalloproteinase for 1 h at 37 °C; complex formation and stability over 24 h checked by activity
T3 construct: catalytic domain of human MMP-1 (lacks the hemopexin domain); pro-domain removed with APMA
T3 sequence (looked up): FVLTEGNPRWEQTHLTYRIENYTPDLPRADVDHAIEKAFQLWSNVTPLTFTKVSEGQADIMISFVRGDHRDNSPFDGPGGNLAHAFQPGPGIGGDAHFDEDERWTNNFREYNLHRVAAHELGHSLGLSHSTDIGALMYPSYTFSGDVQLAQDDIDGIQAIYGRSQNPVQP

[4] = target: T4, MMP-3 catalytic domain (MMP-3ΔC) (UniProt P08254 100-272); assay: as above
T4 construct: catalytic domain of MMP-3; pro-domain removed with APMA

MMP-9 = target: T5, MMP-9 (UniProt P14780 107-707); assay: as above
T5 construct: MMP-9, active enzyme after removal of the pro-domain with APMA

[5] = target: T6, FLAG-tagged ADAMTS-5 lacking the C-terminal thrombospondin domain (ADAMTS5-2) (UniProt Q9UNA0 262-874); assay: as above
T6 construct: ADAMTS-5 lacking the C-terminal thrombospondin domain
T6 sequence (looked up): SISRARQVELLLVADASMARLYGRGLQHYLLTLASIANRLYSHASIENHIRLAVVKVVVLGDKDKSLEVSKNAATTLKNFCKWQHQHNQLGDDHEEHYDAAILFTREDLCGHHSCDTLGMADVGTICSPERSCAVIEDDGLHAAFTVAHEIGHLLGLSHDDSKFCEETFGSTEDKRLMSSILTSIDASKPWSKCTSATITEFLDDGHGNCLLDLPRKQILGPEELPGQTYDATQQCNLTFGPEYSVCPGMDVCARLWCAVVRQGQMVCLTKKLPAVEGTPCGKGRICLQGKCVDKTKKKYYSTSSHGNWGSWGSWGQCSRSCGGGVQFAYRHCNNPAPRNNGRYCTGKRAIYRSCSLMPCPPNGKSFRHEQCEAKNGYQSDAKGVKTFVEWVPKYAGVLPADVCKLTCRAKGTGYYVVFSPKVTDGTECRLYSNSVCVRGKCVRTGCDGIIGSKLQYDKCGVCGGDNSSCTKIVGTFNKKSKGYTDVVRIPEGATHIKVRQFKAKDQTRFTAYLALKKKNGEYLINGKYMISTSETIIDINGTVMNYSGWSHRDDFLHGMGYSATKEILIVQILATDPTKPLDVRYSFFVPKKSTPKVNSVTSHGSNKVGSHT

[6] = target: T2, FLAG-tagged ADAMTS-4 lacking the …; assay: as above
ectodomain of MMP-14 = target: T7, ectodomain of MMP-14 (UniProt P50281 112-541); assay: as above
T7 construct: also called MMP-14 ectodomain; MMP-14 catalytic domain

[7] = target: T4, MMP-3 catalytic domain (MMP-3ΔC); assay: enzyme inhibition kinetics (fluorogenic peptide substrates); apparent Ki; enzyme pre-incubated with TIMP-3 (0.5-100 nM) 1 h at 37 °C, equilibrium rate of substrate hydrolysis; TNC buffer (50 mM Tris-HCl pH 7.5, 150 mM NaCl, 10 mM CaCl2, 0.05% Brij-35, 0.02% NaN3), 37 °C; tight-binding equation

T1 sequence (Q07954 20-4544): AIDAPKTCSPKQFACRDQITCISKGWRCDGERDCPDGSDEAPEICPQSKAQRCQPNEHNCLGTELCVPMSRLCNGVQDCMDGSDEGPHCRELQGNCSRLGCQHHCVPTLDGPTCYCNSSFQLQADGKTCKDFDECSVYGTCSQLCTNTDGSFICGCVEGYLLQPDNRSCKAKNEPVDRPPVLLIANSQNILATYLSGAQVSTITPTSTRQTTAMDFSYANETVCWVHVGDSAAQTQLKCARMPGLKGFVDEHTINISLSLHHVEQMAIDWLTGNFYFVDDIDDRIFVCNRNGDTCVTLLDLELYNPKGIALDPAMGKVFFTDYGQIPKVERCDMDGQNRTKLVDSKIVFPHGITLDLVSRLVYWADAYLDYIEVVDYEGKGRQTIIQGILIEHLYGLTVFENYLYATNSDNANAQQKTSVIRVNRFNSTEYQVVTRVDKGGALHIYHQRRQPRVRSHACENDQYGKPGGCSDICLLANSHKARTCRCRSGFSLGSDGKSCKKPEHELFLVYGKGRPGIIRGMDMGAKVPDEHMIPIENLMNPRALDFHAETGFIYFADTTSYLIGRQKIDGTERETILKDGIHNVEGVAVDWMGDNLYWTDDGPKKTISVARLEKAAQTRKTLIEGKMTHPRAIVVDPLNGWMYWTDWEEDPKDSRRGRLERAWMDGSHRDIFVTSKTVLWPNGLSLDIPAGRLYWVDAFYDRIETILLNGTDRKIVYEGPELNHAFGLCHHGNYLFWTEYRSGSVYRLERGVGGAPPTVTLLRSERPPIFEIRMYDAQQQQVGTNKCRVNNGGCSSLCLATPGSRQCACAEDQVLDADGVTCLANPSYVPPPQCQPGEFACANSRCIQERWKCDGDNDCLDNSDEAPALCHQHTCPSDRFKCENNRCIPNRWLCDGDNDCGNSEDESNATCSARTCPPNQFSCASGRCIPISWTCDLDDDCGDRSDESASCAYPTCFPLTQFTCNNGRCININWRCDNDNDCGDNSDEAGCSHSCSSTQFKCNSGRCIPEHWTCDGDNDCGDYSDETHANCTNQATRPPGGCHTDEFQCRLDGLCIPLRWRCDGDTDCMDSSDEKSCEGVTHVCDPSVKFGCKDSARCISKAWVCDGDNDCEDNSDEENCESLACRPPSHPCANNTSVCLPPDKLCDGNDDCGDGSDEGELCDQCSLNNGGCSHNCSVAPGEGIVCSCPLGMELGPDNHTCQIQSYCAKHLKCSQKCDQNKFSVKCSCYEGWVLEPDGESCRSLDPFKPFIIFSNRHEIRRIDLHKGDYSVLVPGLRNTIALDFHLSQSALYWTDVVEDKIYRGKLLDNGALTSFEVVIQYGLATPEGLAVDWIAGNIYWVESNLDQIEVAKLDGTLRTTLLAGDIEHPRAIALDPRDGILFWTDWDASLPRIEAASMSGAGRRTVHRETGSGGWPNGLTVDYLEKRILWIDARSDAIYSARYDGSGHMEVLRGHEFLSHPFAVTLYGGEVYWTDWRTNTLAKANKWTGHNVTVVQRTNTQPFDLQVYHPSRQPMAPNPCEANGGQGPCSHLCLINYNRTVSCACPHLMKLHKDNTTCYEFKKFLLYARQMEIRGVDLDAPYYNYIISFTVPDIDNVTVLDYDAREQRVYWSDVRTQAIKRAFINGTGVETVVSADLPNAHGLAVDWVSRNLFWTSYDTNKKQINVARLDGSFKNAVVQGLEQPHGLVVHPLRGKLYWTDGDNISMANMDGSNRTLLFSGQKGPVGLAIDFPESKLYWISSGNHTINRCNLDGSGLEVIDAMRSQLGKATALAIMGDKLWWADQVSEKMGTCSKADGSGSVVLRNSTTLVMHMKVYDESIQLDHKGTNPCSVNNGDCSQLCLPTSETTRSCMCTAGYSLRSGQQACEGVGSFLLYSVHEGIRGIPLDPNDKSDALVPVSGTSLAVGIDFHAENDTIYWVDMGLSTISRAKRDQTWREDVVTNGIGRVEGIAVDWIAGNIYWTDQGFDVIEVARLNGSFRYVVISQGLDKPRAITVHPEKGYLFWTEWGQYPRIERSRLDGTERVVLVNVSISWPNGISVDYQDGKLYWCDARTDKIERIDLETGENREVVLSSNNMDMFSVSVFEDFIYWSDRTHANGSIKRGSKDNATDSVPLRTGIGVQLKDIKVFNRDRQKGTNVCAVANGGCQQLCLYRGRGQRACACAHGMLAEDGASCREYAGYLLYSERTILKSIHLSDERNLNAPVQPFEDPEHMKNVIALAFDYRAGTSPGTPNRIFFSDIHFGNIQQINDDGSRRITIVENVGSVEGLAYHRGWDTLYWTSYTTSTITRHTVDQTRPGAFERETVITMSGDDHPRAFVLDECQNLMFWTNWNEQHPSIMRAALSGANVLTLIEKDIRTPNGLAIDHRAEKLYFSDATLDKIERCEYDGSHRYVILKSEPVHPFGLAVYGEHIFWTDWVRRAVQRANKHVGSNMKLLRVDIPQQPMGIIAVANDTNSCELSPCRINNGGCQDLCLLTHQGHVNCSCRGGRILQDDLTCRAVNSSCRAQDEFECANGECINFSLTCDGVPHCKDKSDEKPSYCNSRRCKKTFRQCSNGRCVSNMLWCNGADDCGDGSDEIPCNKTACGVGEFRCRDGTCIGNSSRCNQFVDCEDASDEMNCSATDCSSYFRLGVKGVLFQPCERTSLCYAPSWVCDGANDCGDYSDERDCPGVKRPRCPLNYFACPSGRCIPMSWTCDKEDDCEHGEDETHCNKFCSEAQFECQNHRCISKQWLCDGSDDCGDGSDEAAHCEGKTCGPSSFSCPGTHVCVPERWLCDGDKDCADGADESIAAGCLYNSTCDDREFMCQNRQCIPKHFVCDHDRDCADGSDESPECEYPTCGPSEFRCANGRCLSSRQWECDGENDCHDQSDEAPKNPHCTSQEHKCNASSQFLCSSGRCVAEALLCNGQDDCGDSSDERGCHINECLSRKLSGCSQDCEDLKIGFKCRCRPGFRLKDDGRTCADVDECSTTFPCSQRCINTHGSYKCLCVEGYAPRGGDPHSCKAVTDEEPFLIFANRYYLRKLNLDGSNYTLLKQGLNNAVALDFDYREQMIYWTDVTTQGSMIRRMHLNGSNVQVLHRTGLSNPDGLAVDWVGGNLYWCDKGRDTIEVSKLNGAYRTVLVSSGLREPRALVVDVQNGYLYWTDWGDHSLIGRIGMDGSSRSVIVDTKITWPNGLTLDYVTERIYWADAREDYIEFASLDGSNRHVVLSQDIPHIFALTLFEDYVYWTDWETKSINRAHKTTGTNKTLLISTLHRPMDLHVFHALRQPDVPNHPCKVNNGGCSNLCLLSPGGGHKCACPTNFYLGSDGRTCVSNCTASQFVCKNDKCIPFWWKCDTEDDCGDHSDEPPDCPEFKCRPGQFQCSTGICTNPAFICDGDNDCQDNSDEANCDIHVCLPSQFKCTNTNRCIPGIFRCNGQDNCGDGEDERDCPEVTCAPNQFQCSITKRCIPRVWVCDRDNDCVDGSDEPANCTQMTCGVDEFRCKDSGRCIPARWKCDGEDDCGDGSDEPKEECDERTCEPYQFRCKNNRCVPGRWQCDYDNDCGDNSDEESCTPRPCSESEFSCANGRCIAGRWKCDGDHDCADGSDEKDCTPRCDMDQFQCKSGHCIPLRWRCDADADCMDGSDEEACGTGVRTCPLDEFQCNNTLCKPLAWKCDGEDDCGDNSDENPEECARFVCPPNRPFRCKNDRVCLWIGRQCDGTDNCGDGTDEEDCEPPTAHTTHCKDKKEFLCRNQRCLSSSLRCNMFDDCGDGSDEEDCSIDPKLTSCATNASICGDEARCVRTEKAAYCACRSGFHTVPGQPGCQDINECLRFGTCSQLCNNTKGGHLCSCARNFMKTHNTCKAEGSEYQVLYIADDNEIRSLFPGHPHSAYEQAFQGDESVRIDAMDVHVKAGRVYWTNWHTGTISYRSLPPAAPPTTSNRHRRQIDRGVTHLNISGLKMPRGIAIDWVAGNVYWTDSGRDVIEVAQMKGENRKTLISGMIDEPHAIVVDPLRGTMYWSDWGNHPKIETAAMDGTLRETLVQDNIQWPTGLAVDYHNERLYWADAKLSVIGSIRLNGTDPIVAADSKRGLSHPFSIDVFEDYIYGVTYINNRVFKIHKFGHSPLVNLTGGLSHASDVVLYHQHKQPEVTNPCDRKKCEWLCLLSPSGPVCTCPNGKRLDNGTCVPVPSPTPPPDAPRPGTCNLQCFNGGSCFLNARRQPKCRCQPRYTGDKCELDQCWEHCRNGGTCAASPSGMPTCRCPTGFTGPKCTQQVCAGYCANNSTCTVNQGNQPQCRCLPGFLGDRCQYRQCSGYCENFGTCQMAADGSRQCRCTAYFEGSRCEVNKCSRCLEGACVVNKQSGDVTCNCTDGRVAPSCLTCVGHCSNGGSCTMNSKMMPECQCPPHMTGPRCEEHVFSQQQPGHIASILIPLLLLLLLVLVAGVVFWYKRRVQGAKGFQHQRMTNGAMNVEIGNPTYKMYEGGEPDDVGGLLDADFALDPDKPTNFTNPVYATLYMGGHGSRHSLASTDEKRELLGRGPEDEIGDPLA
T4 sequence (P08254 100-272, stated change not applied): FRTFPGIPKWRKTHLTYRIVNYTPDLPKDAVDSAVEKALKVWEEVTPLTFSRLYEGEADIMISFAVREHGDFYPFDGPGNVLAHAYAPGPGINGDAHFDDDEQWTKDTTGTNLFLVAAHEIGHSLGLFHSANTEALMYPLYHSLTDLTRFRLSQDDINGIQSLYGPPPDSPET

B1: FLAG-tagged TIMP-3 (natural protein, UniProt P35625 24-211, looked up)
chain: CTCSPSHPQDAFCNSDIVIRAKVVGKKLVKEGPFGTLVYTIKQMKMYRGFTKMPHVQYIHTEASESLCGLKLEVNKYQYLLTGRVYDGKMYTGLCNFVERWDQLTLSQRKGLNYRYHLGCNCKIKSCYYLPCFVTSKNECLWTDMLSNFGYPGYQSKHYACIRQKGGYCSWYRGWAPPDKSIINATDP
notes: also called T3; [35S]TIMP-3
[1]
  Kd: 1.68 nM
  koff: 0.00389 s⁻¹
  kon: 2.31e+06 M⁻¹ s⁻¹
[2]
  Ki: 1.24 nM
[3]
  stoichiometry N: 1
[4]
  stoichiometry N: 1
MMP-9
  stoichiometry N: 1
[5]
  stoichiometry N: 1
[6]
  stoichiometry N: 1
Ectodomain of MMP-14
  stoichiometry N: 1
[7]
  Ki: 0.55 nM
